Results on 3 molecules are retold here after patent publication US20210347869A1 (UNIVERSITY OF QUEENSLAND, published 2021).

The target of assay [1] is T1, full-length human tau (human, UniProt P10636 2-757).
T1 construct: also called tau441; human tau isoform 2
The assay can be described thus: SPR (Biacore S200), single-cycle, biotinylated antibody captured on streptavidin chip, tau as analyte, steady state affinity fit; IgG1 format. How it is done: (§1) (C) Single-cycle kinetics of AB1 to full-length human tau was determined using surface plasmon resonance. […] (D) The molecular weight (MW), binding affinity (KD) and activity for each of the AB1 antibody formats.
(§2) Surface plasmon resonance measurements were conducted at the Monash Fragment Platform, Monash University, using the Biacore S200 biosensor (GE Healthcare). Biotinylated AB1 was captured on a streptavidin-coated CM5 chip. For biotinylation, AB1 IgG1 (29.5 μM), AB1 IgG2a (32.0 μM), AB1 Fab (22.9 μM) and AB1 scFv (60.4 μM) (in 137 mM NaCl, 2.7 mM KCl, 10 mM Na2HPO4, 1.8 mM KH2PO4) was added in a 1:1 ratio with EZ-link NHS-LC-LC-biotin (Thermo Scientific) and incubated at 25° C. for 1 hr. Antibodies were separated from free-unconjugated biotin using size-exclusion chromatography on a Superdex 200 10/300 GL (GE Healthcare) or Superdex 75 10/300 Increase (GE Healthcare) equilibrated in 137 mM NaCl, 2.7 mM KCl, 12 mM Na2HPO4, 1.8 mM KH2PO4, pH 7.4. Streptavidin was immobilized on the CM5 chip using amine coupling at 37° C. […]
A general note: Surface plasmon resonance follows binding to a sensor surface in real time, without labels.

The target of assay [2] is T1, full-length human tau. The assay can be described thus: SPR (Biacore S200), single-cycle, biotinylated antibody captured on streptavidin chip, tau as analyte, steady state affinity fit; IgG2a format. The procedure:
as §1, §2

Assay [3] has as its target T1, full-length human tau. The experiment in a line: SPR (Biacore S200), single-cycle, biotinylated Fab captured on streptavidin chip, tau as analyte, steady state affinity fit; Fab, not IgG. The procedure: as §1, §2

T1 sequence (P10636 other isoform, or with tags, fused parts or gaps limits assumed): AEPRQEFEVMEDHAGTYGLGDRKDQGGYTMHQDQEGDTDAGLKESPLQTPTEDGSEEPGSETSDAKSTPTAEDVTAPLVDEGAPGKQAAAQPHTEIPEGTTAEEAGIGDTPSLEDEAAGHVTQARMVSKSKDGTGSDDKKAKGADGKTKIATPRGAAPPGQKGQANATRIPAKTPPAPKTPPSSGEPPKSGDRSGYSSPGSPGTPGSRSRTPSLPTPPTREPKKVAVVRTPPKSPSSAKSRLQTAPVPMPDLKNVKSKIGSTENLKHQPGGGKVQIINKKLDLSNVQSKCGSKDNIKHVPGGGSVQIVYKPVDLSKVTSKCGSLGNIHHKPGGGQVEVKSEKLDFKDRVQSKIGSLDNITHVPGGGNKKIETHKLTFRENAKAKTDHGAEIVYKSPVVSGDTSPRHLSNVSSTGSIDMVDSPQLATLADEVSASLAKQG

B1: AB1 IgG1 (antibody, V domains shown)
VH: QVQLKQSGPGLVQPSQSLSITCTVSGFSLTSYGVHWVRQSPGKGLEWLGVIWRGGSTDYNAAFMSRLSITKDNSKSQVFFKMNSLQADDTAIYYCAKNTNHRYDGYYAMDYWGQGTSVTVS
VL: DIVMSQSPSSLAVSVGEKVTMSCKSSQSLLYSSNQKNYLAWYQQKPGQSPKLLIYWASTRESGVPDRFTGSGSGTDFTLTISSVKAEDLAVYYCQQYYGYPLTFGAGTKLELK
notes: Expressed in Expi-CHO, about 156 kDa; For SPR it was biotinylated with NHS-LC-LC-biotin and captured on streptavidin; also called full-sized murine IgG1
For B1, in assay [1], the equilibrium dissociation constant (Kd) (in general, the free concentration of one partner at which half of the binding sites on the other are occupied at equilibrium, for simple one-to-one binding) was 0.407 µM. That is a sub-micromolar value.

B2: AB1 IgG2a (antibody, V domains shown)
VH: QVQLKQSGPGLVQPSQSLSITCTVSGFSLTSYGVHWVRQSPGKGLEWLGVIWRGGSTDYNAAFMSRLSITKDNSKSQVFFKMNSLQADDTAIYYCAKNTNHRYDGYYAMDYWGQGTSVTVS
VL: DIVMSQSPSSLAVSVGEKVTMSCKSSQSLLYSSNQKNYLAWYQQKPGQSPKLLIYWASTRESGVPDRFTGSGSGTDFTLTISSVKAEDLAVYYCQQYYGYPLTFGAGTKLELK
notes: About 156 kDa; Biotinylated and captured on streptavidin for SPR; also called full-sized murine IgG2a
B2 came in with a Kd in assay [2] of 0.381 µM.

B3: AB1 Fab (Fab, V domains shown)
VH: QVQLKQSGPGLVQPSQSLSITCTVSGFSLTSYGVHWVRQSPGKGLEWLGVIWRGGSTDYNAAFMSRLSITKDNSKSQVFFKMNSLQADDTAIYYCAKNTNHRYDGYYAMDYWGQGTSVTVS
VL: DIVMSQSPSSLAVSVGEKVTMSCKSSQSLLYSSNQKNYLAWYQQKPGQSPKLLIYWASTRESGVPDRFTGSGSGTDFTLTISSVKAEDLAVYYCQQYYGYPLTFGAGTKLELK
notes: Biotinylated and captured on streptavidin for SPR
The molecule B3 registered a dissociation constant Kd in assay [3] of 0.298 µM.
